{"source": "patent US6673332", "about": "(University of California, dated 2004)", "binders": {"B1": {"name": "GST-TPR (GST fusion protein of the TPR domains of KLC1, amino acids 167-541) (other, UniProt O88447 167-541, looked up)", "chain": "KDSDSSKEPLDDLFPNDEDEPGQGIQHSDSSAAAARQGYEIPARLRTLHNLVIQYASQGRYEVAVPSCKQALEDLEKTSGHDHPDVATMLNILALVYRDQNKYKDAANLLNDALAIREKTLGRDHPAVAATLNNLAVLYGKRGKYKEAEPLCKRALEIREKVLGKDHPDVAKQLNNLALLCQNQGKYEEVEYYYQRALGIYQTKLGPDRTPNVAKTKNNLASCYLKQGKFKQAETLYKEILTRAHEAEFGSVDDENKPIWMHAEEREECKGKQKDGSAFGEYGGWYKACKVDSPTVTTTLKNLGALYRRQGKFEAAETLEEAAMRSRKQGLDNVHKQRVAEVLNDPESMEKRRSRESLNMDVVKYESGPDGGEEA", "notes": "range 167-541; The range is printed without a hyphen (167541); not shown: glutathione S-transferase"}}, "key": {"[1]": {"target": "APP (amyloid precursor protein), endogenous, from mouse brain and sciatic nerve extracts (mouse, UniProt P12023 18-770, limits assumed)", "assay": "co-immunoprecipitation from mouse brain and sciatic nerve extracts, Western blot", "from_the_text": "Mouse brain (left side of panel; IP brain) or sciatic nerve (right side of panel; Supe) extracts were immunoprecipitated with a no antibody control (No Ab), the 63–90 antibody (which recognizes both KLC1 and KLC2; i.e., kinesin light chains 1 and 2), antibodies to KIF5B (ubiquitous KHC), or APP (C-terminal polyclonal antibody) or synaptotagmin (SYT). Panel B provides results showing the specificity of kinesin-I co-immunoprecipitation with APP. Co-immunoprecipitation of APP with KLC from wild-type (wt) and mutant (−/−) KLC1 brain extracts was done using 63–90 or antibodies specific to either KLC1 or KLC2, and then analyzed by Western blots using either 63–90 or APP (22C11) antibodies. Panel C provides results showing KLC1 dependence of KHC complexes with APP. Co-immunoprecipitation of APP with KHC from wild-type (wt) and mutant (−/−) KLC1 brain extracts were performed using antibodies to three different KHC subunits (KIF5A, KIF5B and KIF5C), and then analyzed by Western blots using either 63–90 or APP (22C11) antibodies, as shown in this Panel. […]\nSufficient quantities of either anti-KLC1 and anti-KLC2 (Rahman et al., [1998], supra), or anti-KIF5A and anti-KIF5B antibodies (Niclas et al., Neuron 12:1059–1072 [1994]) were added to the precleared lysate so as to completely immunoprecipitate the antigens in the lysate. […]"}, "GFP alone [2]": {"target": "T1, GFP alone (UniProt P42212 1-238 = GFP, limits assumed)", "T1 construct": "Control", "assay": "GST pull-down, Western blot for GFP", "description": "(§1) Briefly, purified GST, GST-KLC1 and GST-KLC2 bound to glutathione agarose beads were incubated with 10 μg of indicated purified fusion protein in 150 μl Buffer B (20 mM Tris-Cl, pH 7.5, 50 mM KCl, 100 mM NaCl, 2 mM CaCl_2, 2 mM MgCl_2, 5 mM DTT, 1% BSA, and protease inhibitors) for 1 hr at 4° C. For the antibody inhibition experiments, the antibody was pre-bound to the beads for 1 hr at 4° C. and then incubated for 1 hr with the indicated protein. The unbound protein (in 150 μl total volume) was saved, and the beads were washed three times with Buffer B. Bound proteins were eluted with 50 μl of elution buffer (50 mM glutathione, 50 mM Tris-Cl, pH 8.0). The bound (50 μl) and unbound (50 μl, i.e., one-third of total volume) proteins were then analyzed by SDS-PAGE followed by Western blotting.\n(§2) To test directly if the C-terminus of APP interacts with the TPR domains of KLC, GST pull-down assays were conducted using GST fusion proteins of KLC1 that contained either the TPR domains (GST-TPR) or only the N-terminal coiled-coil region (GST-CC) (See, FIG. 5, Panel E). Purified APP-GFP protein bound to GST-TPR and not to GST-CC or to GST alone. In contrast, a KIF5B construct that contains part of a region previously found to bind to KLC (Diefenbach et al., [1998], supra; and Gauger and Goldstein, [1993], supra) bound to GST-CC, and not to GST-TPR."}, "[3]": {"target": "T2, APP-GFP fusion protein (C-terminal 42 amino acids of human APP fused to GFP, from a His-tagged pRSETb-EGFP … (human, UniProt P05067 729-770; P42212 1-238 = GFP)", "T2 construct": "Expressed in bacteria, purified on Ni-NTA-agarose; also called C-terminal tail of APP fused to GFP; APP C-terminus; not shown: His tag and leader of the pRSETb vector", "assay": "GST pull-down, Western blot for GFP", "description": "as §1, §2"}, "[4]": {"target": "B1", "assay": "GST pull-down, Western blot for the His tag", "description": "as §1, §2"}, "GFP alone [5]": {"target": "T1, GFP alone", "assay": "GST pull-down on glutathione agarose beads, Western blot for GFP", "description": "as §1\nTo test for direct interactions between the cytoplasmic C-terminal domain of APP and KLC, in vitro binding assays using GST fusion proteins were conducted. The results are shown in FIG. 5, Panel A. GST fused to full-length KLC1 (GST-KLC1) or full-length KLC2 (GST-KLC2) was incubated with a protein consisting of the C-terminal tail of APP fused to GFP (APP-GFP). APP-GFP bound to both GST-KLC1 and GST-KLC2 but not to GST alone. […]"}, "GFP alone [6]": {"target": "T1, GFP alone", "assay": "GST pull-down on glutathione agarose beads, Western blot for GFP; also under five buffer conditions", "description": "as §1\nIn addition, the binding of APP-GFP or GFP alone to either GST-KLC1 or GST using four other buffers than Buffer B, namely (1) Buffer B without Ca^2+, (2) Buffer B+500 mM NaCl+1% NP-40, (3) Buffer A from sucrose gradients (10 mM HEPES, pH 7.3, 0.5 mM EGTA, 0.5 mM EGTA, 0.5 mM MgCl_2, and (4) PBS (137 mM NaCl, 2.7 mM KCl, 4.3 mM Na_2HPO_4 7 H_2O, 1.4 mM KH_2PO_4) were tested.\nTo test for direct interactions between the cytoplasmic C-terminal domain of APP and KLC, in vitro binding assays using GST fusion proteins were conducted. […]"}}}
{"binder": "synaptophysin, endogenous, mouse extracts (other, UniProt Q62277 1-314, looked up, also called SYP) MLLLADMDVVNQLVAGGQFRVVKEPLGFVKVLQWVFAIFAFATCGSYTGELRLSVECANKTESALNIEVEFEYPFRLHQVYFDAPSCVKGGTTKIFLVGDYSSSAEFFVTVAVFAFLYSMGALATYIFLQNKYRENNKGPMMDFLATAVFAFMWLVSSSAWAKGLSDVKMATDPENIIKEMPMCRQTGNTCKELRDPVTSGLNTSVVFGFLNLVLWVGNLWFVFKETGWAAPFMRAPPGAPEKQPAPGDAYGDAGYGQGPGGYGPQDSYGPQGGYQPDYGQPASGGGGGYGPQGDYGQQGYGQQGAPTSFSNQM", "values": [{"measurement": "binding result", "setting": "[1]", "value": "no binding"}]}
{"binder": "B1", "values": [{"measurement": "binding result", "setting": "GFP alone [2]", "value": "no binding"}]}
{"binder": "GST-CC (GST fusion protein of the N-terminal coiled coil domain of KLC, amino acids 30-200) (other, UniProt O88447 30-200, looked up, range 30-200; not shown: glutathione S-transferase) QVIQGLEALKNEHNSILQSLLETLKCLKKDDESNLVEEKSSMIRKSLEMLELGLSEAQVMMALSNHLNAVESEKQNVRAQVRRLCQENQWLRDELANTQQKLQKSEQSVAQLEEEKKHLEFMNQLKKYDDDISPSEDKDSDSSKEPLDDLFPNDEDEPGQGIQHSDSSAAA", "values": [{"measurement": "binding result", "setting": "GFP alone [2]", "value": "no binding"}, {"measurement": "binding result", "setting": "[3]", "value": "no binding"}]}
{"binder": "KIF5B-His fusion protein (amino acids 499-783 of KIF5B, His-tagged, pET-23b) (other, UniProt Q61768 499-783, looked up, range 499-783; also called C-terminal stalk of KIF5B; KIF5B construct; not shown: His tag of vector pET-23b) AVNYDQKSQEVEDKTKEYELLSDELNQKSATLASIDAELQKLKEMTNHQKKRAAEMMASLLKDLAEIGIAVGNNDVKQPEGTGMIDEEFTVARLYISKMKSEVKTMVKRCKQLESTQTESNKKMEENEKELAACQLRISQHEAKIKSLTEYLQNVEQKKRQLEESVDSLGEELVQLRAQEKVHEMEKEHLNKVQTANEVKQAVEQQIQSHRETHQKQISSLRDEVEAKEKLITDLQDQNQKMVLEQERLRVEHERLKATDQEKSRKLHELTVMQDRREQARQDLK", "values": [{"measurement": "binding result", "setting": "[4]", "value": "no binding"}]}
{"binder": "GST-KLC2 (glutathione S-transferase fused to kinesin light chain 2, 591 amino acids of the largest cDNA clone) (other, UniProt O88448 9-599, looked up, not shown: a dimerising Fc or GST, also called GST fused to full-length KLC2) EEKLSQDEIVLGTKAVIQGLETLRGEHRALLAPLASHEAGEAEPGSQERCLLLRRSLEAIELGLGEAQVILALSSHLGAVESEKQKLRAQVRRLVQENQWLREELAGTQQKLQRSEQAVAQLEEEKQHLLFMSQIRKLDEMLPQEEKGDVPKDSLDDLFPNEDEQSPAPSPGGGDVAAQHGGYEIPARLRTLHNLVIQYASQGRYEVAVPLCKQALEDLEKTSGHDHPDVATMLNILALVYRDQNKYKDAAHLLNDALAIREKTLGKDHPAVAATLNNLAVLYGKRGKYKEAEPLCKRALEIREKVLGKFHPDVAKQLSNLALLCQNQGKAEEVEYYYRRALEIYATRLGPDDPNVAKTKNNLASCYLKQGKYQDAETLYKEILTRAHEKEFGSVNGENKPIWMHAEEREESKDKRRDRRPMEYGSWYKACKVDSPTVNTTLRTLGALYRPEGKLEAAHTLEDCASRSRKQGLDPASQTKVVELLKDGSGRGHRRGSRDVAGPQSESDLEESGPAAEWSGDGSGSLRRSGSFGKLRDALRRSSEMLVRKLQGGGPQEPNSRMKRASSLNFLNKSVEEPVQPGGRVFLTAAL", "values": [{"measurement": "binding result", "setting": "GFP alone [5]", "value": "no binding"}]}
{"binder": "GST-KLC1 (glutathione S-transferase fused to kinesin light chain 1, all but the first seven amino acids) (other, UniProt O88447 8-541, looked up, not shown: a dimerising Fc or GST, range 8-end; also called GST fused to full-length KLC1) MVYIKEEKLENVTQDEIISKTKQVIQGLEALKNEHNSILQSLLETLKCLKKDDESNLVEEKSSMIRKSLEMLELGLSEAQVMMALSNHLNAVESEKQNVRAQVRRLCQENQWLRDELANTQQKLQKSEQSVAQLEEEKKHLEFMNQLKKYDDDISPSEDKDSDSSKEPLDDLFPNDEDEPGQGIQHSDSSAAAARQGYEIPARLRTLHNLVIQYASQGRYEVAVPSCKQALEDLEKTSGHDHPDVATMLNILALVYRDQNKYKDAANLLNDALAIREKTLGRDHPAVAATLNNLAVLYGKRGKYKEAEPLCKRALEIREKVLGKDHPDVAKQLNNLALLCQNQGKYEEVEYYYQRALGIYQTKLGPDRTPNVAKTKNNLASCYLKQGKFKQAETLYKEILTRAHEAEFGSVDDENKPIWMHAEEREECKGKQKDGSAFGEYGGWYKACKVDSPTVTTTLKNLGALYRRQGKFEAAETLEEAAMRSRKQGLDNVHKQRVAEVLNDPESMEKRRSRESLNMDVVKYESGPDGGEEA", "values": [{"measurement": "binding result", "setting": "GFP alone [6]", "value": "no binding"}]}
